The results in this text go back to paper PMC10786891, “Massively parallel profiling of RNA-targeting CRISPR-Cas13d”.

Residue numbers refer to the chain shown, from its start. Numbers in names are those of the source.

T1: EsCas13d, nuclease-dead (Eubacterium siraeum, UniProt B0MS50, R295A;H300A;R849A;H854A)
T1 sequence: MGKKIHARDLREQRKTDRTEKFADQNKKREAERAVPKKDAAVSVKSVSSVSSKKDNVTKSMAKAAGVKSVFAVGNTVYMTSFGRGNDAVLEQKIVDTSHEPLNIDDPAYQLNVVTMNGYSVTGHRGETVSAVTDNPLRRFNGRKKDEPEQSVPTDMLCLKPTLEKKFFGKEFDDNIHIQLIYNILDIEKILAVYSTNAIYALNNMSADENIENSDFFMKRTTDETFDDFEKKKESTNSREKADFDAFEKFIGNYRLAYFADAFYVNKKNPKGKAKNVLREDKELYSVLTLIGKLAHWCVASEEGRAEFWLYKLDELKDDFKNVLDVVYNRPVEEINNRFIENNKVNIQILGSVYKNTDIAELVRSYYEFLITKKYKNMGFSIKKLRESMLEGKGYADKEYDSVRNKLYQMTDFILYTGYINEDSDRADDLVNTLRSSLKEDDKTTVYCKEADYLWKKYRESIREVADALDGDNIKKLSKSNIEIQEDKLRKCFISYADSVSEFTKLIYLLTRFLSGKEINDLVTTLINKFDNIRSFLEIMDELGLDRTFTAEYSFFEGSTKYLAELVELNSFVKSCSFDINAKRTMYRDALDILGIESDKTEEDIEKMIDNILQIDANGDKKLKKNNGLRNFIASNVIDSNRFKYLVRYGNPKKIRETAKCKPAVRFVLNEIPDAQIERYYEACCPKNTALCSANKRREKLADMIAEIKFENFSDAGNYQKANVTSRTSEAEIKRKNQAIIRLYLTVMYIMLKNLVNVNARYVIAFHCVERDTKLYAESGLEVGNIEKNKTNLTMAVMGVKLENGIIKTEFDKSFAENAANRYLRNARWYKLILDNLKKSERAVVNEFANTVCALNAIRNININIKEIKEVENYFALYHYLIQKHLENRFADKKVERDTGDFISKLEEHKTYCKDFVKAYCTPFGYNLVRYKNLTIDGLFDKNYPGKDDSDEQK

B1: target 1 C2G,U10C (mixed)
RNA 1: CACCCGUGCAAAAAUGCAGGGGUCUAAAACUGAGCGGAUAACCUCUCUAUGG
RNA 2: GGGAAUGGAUCCACAUCUACGAAUUCGUACCAUAGAGAGGUCAUCCGCUGACCGAGAUCGGAAGAGCACACGU
B2: target 1 G5C,G13A (mixed)
RNA 1: B1 RNA 1
RNA 2: B1 RNA 2 with G39A, C42U, G47C, G50C
B3: target 1 A9G,A16U (mixed)
RNA 1: B1 RNA 1
RNA 2: B1 RNA 2 with A36U, C42U, A43G, G50C
B4: target 1 G5C,C7U (mixed)
RNA 1: B1 RNA 1
RNA 2: B1 RNA 2 with C42U, C45U, G47C, G50C
B5: target 1 insC 3' of 19,insC 3' of 1 (mixed)
RNA 1: B1 RNA 1
RNA 2: GGGAAUGGAUCCACAUCUACGAAUUCGUACCAUCAGAGAGGUUAUCCGCUCACCCGAGAUCGGAAGAGCACACGU
B6: target 1 insC 3' of 19,insA 3' of 2 (mixed)
RNA 1: B1 RNA 1
RNA 2: B5 RNA 2 with C53A
B7: target 1 del4,del13 (mixed)
RNA 1: B1 RNA 1
RNA 2: GGGAAUGGAUCCACAUCUACGAAUUCGUACCAUAGAGAGUUAUCCGUCACCGAGAUCGGAAGAGCACACGU
B8: target 1 insC 3' of 19,insG 3' of 1 (mixed)
RNA 1: B1 RNA 1
RNA 2: B5 RNA 2 with C53G
B9: target 1 C7G,A9G (mixed)
RNA 1: B1 RNA 1
RNA 2: B1 RNA 2 with C42U, A43G, C45G, G50C
B10: target 1 G5C,C6A (mixed)
RNA 1: B1 RNA 1
RNA 2: B1 RNA 2 with C42U, C46A, G47C, G50C
B11: target 1 complement block 8-11 (mixed)
RNA 1: B1 RNA 1
RNA 2: B1 RNA 2 with U41A, C42A, A43U, U44A, G50C
B12: target 1 C2A,U10C (mixed)
RNA 1: B1 RNA 1
RNA 2: B1 RNA 2 with G50A
B13: target 1 C4G,C21U (mixed)
RNA 1: B1 RNA 1
RNA 2: B1 RNA 2 with C31U, C42U, C48G, G50C
B14: target 1 insA 3' of 19,insA 3' of 12 (mixed)
RNA 1: B1 RNA 1
RNA 2: GGGAAUGGAUCCACAUCUACGAAUUCGUACCAUAAGAGAGGAUUAUCCGCUCACCGAGAUCGGAAGAGCACACGU
B15: target 1 C6U,U8C (mixed)
RNA 1: B1 RNA 1
RNA 2: B1 RNA 2 with C42U, U44C, C46U, G50C
B16: target 1 U10C,C22U (mixed)
RNA 1: B1 RNA 1
RNA 2: B1 RNA 2 with C30U, G50C

For this data set, the target named is T1, EsCas13d, nuclease-dead. Briefly: crRNA (strand 1, pre-loaded); Mg2+; 40 mM Tris-HCl pH 7.5, 150 mM NaCl, 6 mM MgCl2, 1 mM DTT, 0.1% Tween-20, 0.2 mg/ml BSA; 25 C; 10 min per concentration, then washed. The settings on record: tags: His6-TwinStrep-SUMO cleaved; N-terminal SNAP kept (SNAP-Surface 488); label: 3' end held by stalled T7 RNA polymerase.
For B1, the affinity, expressed as Kd, was 5.45 ± 0.29 nM.
As for B2, the figure is 5.8 ± 0.4 nM; as for B3, 82 ± 27 nM; as for B4, 33 ± 6 nM.
Turning to B5, binding was characterised by a dissociation constant (Kd) of 26.4 ± 3 nM.
As for B6, the figure is 33.8 ± 3.1 nM; as for B7, 16.5 ± 1.4 nM; as for B8, 31 ± 4 nM.
As for B9, the figure is 14.5 ± 0.8 nM; as for B10, 11.3 ± 0.8 nM.
In the case of B11, binding was put at a Kd of 18.2 ± 0.8 nM.
The value for B12 was 17.8 ± 0.7 nM; that for B13 was 3.5 ± 0.5 nM; that for B14 was 54 ± 5 nM.
For B15, the Kd (in general, the constant that tells how readily two partners part at equilibrium) was 15.6 ± 0.5 nM. Compared with the last molecule, the Kd is about 3.5-fold lower.
B16 yielded a Kd of 56 ± 8 nM.
